Source: PMC6141180

Biological target: p38α (UniProt P47811)
Experiment: ITC
Conditions: reference: native TAB1 (1-438); sites S423

## TAB1 1-438 (from UniProt Q8CF89) pS423TAB1 (1-438), genetically encoded phosphoserine
  binding against the reference: same
